Data as given in PMC3553500 (2013).

Target: GAPDH (Homo sapiens, UniProt P04406)
Assay: ELISA

GAPDH, sequence (P04406 2-335): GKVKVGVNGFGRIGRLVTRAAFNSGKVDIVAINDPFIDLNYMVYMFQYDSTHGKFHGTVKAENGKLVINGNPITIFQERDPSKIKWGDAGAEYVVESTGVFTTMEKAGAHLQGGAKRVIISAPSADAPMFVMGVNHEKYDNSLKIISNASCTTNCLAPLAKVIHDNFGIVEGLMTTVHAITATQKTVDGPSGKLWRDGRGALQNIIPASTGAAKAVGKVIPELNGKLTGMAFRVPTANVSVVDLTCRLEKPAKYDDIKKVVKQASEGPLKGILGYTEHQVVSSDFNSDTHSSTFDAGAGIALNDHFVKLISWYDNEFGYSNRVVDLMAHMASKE

Kd: 96 µM
B1: TRAF2 (protein)
chain: AAASVTPPGSLELLQPGFSKTLLGTKLEAKYLCSACRNVLRRPFQAQCGHRYCSFCLASILSSGPQNCAACVHEGIYEEGISILESSSAFPDNAARREVESLPAVCPSDGCTWKGTLKEYESCHEGRCPLMLTECPACKGLVRLGEKERHLEHECPERSLSCRHCRAPCCGADVKAHHEVCPKFPLTCDGCGKKKIPREKFQDHVKTCGKCRVPCRFHAIGCLETVEGEKQQEHEVQWLREHLAMLLSSVLEAKPLLGDQSHAGSELLQRCESLEKKTATFENIVCVLNREVERVAMTAEACSRQHRLDQDKIEALSSKVQQLERSIGLKDLAMADLEQKVLEMEASTYDGVFIWKISDFARKRQEAVAGRIPAIFSPAFYTSRYGYKMCLRIYLNGDGTGRGTHLSLFFVVMKGPNDALLRWPFNQKVTLMLLDQNNREHVIDAFRPDVTSSSFQRPVNDMNIASGCPLFCPVSKMEAKNSYVRDDAIFIKAIVDLTGL
